# Assay results from publication PMC4752726.
# Tests used:
# Experiment in all cases: BLI
# [1] = target: C-terminally biotinylated FcγRIIIa made from FcγRIIIa-ST-H6 by sortase-mediated ligation (human) (UniProt P08637)
# [2] = target: Man5-IgG1 Fc glycoform (Man5-Fc) (human)
# [3] = target: High mannose IgG1 Fc (HM-Fc), di-glycosylated form (human)
# [4] = target: GlcNAc-IgG1 Fc glycoform (GlcNAc-Fc) (human)
substance,measurement,setting,value
GlcNAc-IgG1 Fc glycoform (GlcNAc-Fc) (domain or fragment),Kd,[1],995 nM
same,koff,[1],0.161 s⁻¹
"High mannose IgG1 Fc (HM-Fc), di-glycosylated form (domain or fragment)",Kd,[1],26.4 nM
same,koff,[1],0.0079 s⁻¹
Man5-IgG1 Fc glycoform (Man5-Fc) (domain or fragment),Kd,[1],32.8 nM
soluble domain of FcγRIIIa with a C-terminal histidine tag (FcγRIIIa-H6) (receptor),Kd,[2],31.8 nM
same,koff,[2],0.0051 s⁻¹
same,kon,[2],160000 M⁻¹ s⁻¹
same,Kd,[3],27.7 nM
same,koff,[3],0.0054 s⁻¹
same,kon,[3],190000 M⁻¹ s⁻¹
same,Kd,[4],1120 nM
same,koff,[4],0.14 s⁻¹
same,kon,[4],120000 M⁻¹ s⁻¹
